Article PMC5767185, “Arabidopsis G-Protein β Subunit AGB1 Interacts with BES1 to Regulate Brassinosteroid Signaling and Cell Elongation” (Frontiers in Plant Science, 2017)

Target: T1, His-AGB1 (Arabidopsis, UniProt P49177 1-377)
T1 construct: AGB1 of Arabidopsis, full length, cloned into pCOLD-TF; as the empty pCOLD-TF vector gives His-TF, the fusion probably carries trigger factor between the His tag and AGB1 (surmised); also called His-tagged AGB1; source: E. coli (Rosetta), pCOLD-TF, purified; not shown: His, N-terminal, kept
T1 sequence (looked up): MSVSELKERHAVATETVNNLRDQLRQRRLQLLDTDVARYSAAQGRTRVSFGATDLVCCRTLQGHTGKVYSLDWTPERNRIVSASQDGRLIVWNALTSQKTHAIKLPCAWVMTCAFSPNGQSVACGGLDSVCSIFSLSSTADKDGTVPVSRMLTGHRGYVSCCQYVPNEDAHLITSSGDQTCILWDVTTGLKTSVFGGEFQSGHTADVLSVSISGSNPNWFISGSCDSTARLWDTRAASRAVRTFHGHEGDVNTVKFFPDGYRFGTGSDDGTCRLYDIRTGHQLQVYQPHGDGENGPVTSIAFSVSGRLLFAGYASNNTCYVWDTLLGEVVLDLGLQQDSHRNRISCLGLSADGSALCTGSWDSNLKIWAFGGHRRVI
Experiment: pull-down; GST-BES1 held on glutathione beads (MagneGST), His-AGB1 or His-TF added, lysis buffer without EDTA, 2 h at 4°C; prey detected with anti-His antibody
Conditions: both partners purified

binding result: binds
B1: GST-BES1 (natural protein, Arabidopsis, UniProt Q9LN63 1-335, looked up)
chain: MTSDGATSTSAAAAAAAMATRRKPSWRERENNRRRERRRRAVAAKIYTGLRAQGNYNLPKHCDNNEVLKALCSEAGWVVEEDGTTYRKGHKPLPGDMAGSSSRATPYSSHNQSPLSSTFDSPILSYQVSPSSSSFPSPSRVGDPHNISTIFPFLRNGGIPSSLPPLRISNSAPVTPPVSSPTSRNPKPLPTWESFTKQSMSMAAKQSMTSLNYPFYAVSAPASPTHHRQFHAPATIPECDESDSSTVDSGHWISFQKFAQQQPFSASMVPTSPTFNLVKPAPQQLSPNTAAIQEIGQSSEFKFENSQVKPWEGERIHDVAMEDLELTLGNGKAHS
notes: BES1 of Arabidopsis, full length, cloned into pGEX-4T-1; also called GST-tagged BES1; source: E. coli (Rosetta), pGEX-4T-1, purified; not shown: GST, N-terminal, kept
